Experimental findings from paper PMC8217500, “Sequence signatures of two public antibody clonotypes that bind SARS-CoV-2 receptor binding domain” (Nature Communications, 2021) are described below.

Holding throughout (details): both partners purified
The target of experiment [1] is T1, Fc-tagged SARS-CoV-2 receptor-binding domain (RBD), wild type (SARS-CoV-2, Wuhan-Hu-1 (QHD43416.1), UniProt P0DTC2).
T1 construct: also called SARS-CoV-2 RBD; WT RBD; not shown: Fc, C-terminal, kept
As to the kind of experiment: BLI; Fc-tagged RBD (20 ug/ml) loaded on anti-hIgG Fc Capture (AHC) biosensors, Fab in solution at four to five concentrations; Octet Red96e, room temperature, 1x kinetics buffer (1x PBS pH 7.4, 0.01% w/v BSA, 0.002% v/v Tween 20); 1:1 binding model. (In general: BLI is a label-free optical method that tracks binding on a fibre tip over time.)

Experiment [2] deals with T2, Fc-tagged SARS-CoV-2 spike receptor-binding domain (RBD) (SARS-CoV-2, Wuhan-Hu-1 (QHD43416.1), UniProt P0DTC2).
T2 construct: also called SARS-CoV-2 RBD; Fc-tagged RBD; source: Expi293F, transiently transfected, purified (KanCapA protein A resin); not shown: Fc (after an SSSSG linker), C-terminal, kept
As to the kind of experiment: BLI; Fc-tagged RBD (20 ug/ml) loaded on anti-hIgG Fc Capture (AHC) biosensors, Fab in solution; room temperature; 1x PBS pH 7.4, 0.01% BSA, 0.002% Tween 20; 1:1 binding model.

Another experiment has as its target T3, Fc-tagged SARS-CoV-2 RBD (SARS-CoV-2, Wuhan-Hu-1 (QHD43416.1), UniProt P0DTC2).
T3 construct: also called SARS-CoV-2 S RBD-Fc; not shown: Fc, C-terminal, kept
As to the kind of experiment: BLI; Octet Red96e, room temperature; Fc-tagged RBD (20 μg/ml) loaded on anti-hIgG Fc Capture (AHC) biosensors, Fab in solution; 1× kinetics buffer (1× PBS pH 7.4, 0.01% BSA, 0.002% Tween 20); 60 s association, 60 s dissociation; 1:1 binding model.

B1: COVA2-20 Fab, wild type (Fab, V domains shown)
VH: EVQLVESGGGLIQPGGSLRLSCAASGFTVSSNYMSWVRQAPGKGLEWVSVIYSGGSTYYADSVKGRFTISRDNSKNTLYLQMNSLRAEDTAVYYCASPLLLTPPDYYYYMDVWGKGTMVTVSS
VL: DVVMTQSPSSLSVSVGDRVTITCRASQGIRNDLGWYQQKPGKAPKRLIYAASSLQSGVPSRFSGSGSGTEFTLTISSLQPEDFATYYCLQHNSYLWTFGQGTKLEIK
A word on the Kd: it is the equilibrium constant for the complex coming apart. In experiment [1], B1 gave a dissociation constant (Kd) of 304 ± 20 nM.

B2: COVA2-20 Fab, Y58 (wild type) (Fab, V domains shown)
VH: B1 VH
VL: B1 VL
In turn, B2 came in with a Kd in experiment [2] of 304 nM. This counts as sub-micromolar.

B3: COV107-23 Fab (Fab, V domains shown)
VH: EVQLVESGGGLIQPGGSLRLSCAASGFTVSSNYMSWVRQAPGKGLEWVSVIYSGGSTFYADSVKGRFTISRDNSKNTLYLQMNSLRAEDTAVYYCARDLGTGLFDYWGQGTLVTVSS
VL: DIQLTQSPSFLSASVGDRVTITCRASQGISSYLAWYQQKPGKAPKLLIYAASTLQSGVPSRFSGSGSGTEFTLTISSLQPEDFATYYCQQLDSYPPGTFGPGTKVDIK
notes: also called wild-type (WT) COV107-23; source: Expi293F, transiently co-transfected, purified (CaptureSelect CH1-XL column)
Regarding B3, in the experiment with Fc-tagged SARS-CoV-2 RBD, the Kd was found to be 1 nM.
